Earlier results in PMC9456110.
Like-named read-outs stand apart in the source and are kept apart here.

Columns and labels:
[1] = target: Calmodulin (Homo sapiens) (UniProt P0DP23)
[2] = target: PIP (Homo sapiens) (UniProt P12273)
[3] = target: Calmodulin (Homo sapiens) (UniProt P0DP23); remark: listed apart in the source
[4] = target: Calmodulin (Homo sapiens) (UniProt P0DP23); remark: listed apart in the source
[5] = target: Calmodulin (Homo sapiens) (UniProt P0DP23); remark: listed apart in the source
[6] = target: Calmodulin (Homo sapiens) (UniProt P0DP23); remark: listed apart in the source

UniProt P12273, sequence (P12273 29-146): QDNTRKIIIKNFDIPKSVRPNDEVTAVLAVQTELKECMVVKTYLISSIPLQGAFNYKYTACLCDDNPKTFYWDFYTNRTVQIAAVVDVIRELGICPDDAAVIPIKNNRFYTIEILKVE

Substance: AQP6 N-terminus (from UniProt Q8C4A0)
- Kd [1]: 0.79 µM

Substance: AQP5 C-terminus (from UniProt P55064)
- Kd [2]: 0.57 µM

Substance: AQP4 C-terminus (from UniProt P55087)
- Kd [3]: 3.6 µM

Substance: AQP4 N-terminus (from UniProt P55087)
- Kd [4]: 3.4 µM

Substance: AQP6 N-terminus (from UniProt Q13520)
- Kd [5]: 1.78 µM

Substance: AQP4 (from UniProt P55087)
- Kd [6]: 29 µM
